Data set [1] concerns MS2 coat protein. Kind of data set: apparent KD of MS2 coat protein, switch ON state; designed switch direction (-1 OFF switch, 1 ON switch): -1; higher = weaker reporter binding. To be noted: FMN input: 0 or 200 uM; Eterna round: R93 (includes R88 designs). The method in brief:
(§1)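 In 100 mM Tris-HCl pH 7.5 with 80 mM KCl and 4 mM MgCl2, and without or with constant ligand, SNAP-549-labelled MS2 coat protein was titrated in twofold steps from 0.7 or 1.5 nM to 3 µM. Per-step times went from 0.8–1.5 h down to 10–20 min. The RNA switches were transcribed on-chip from Illumina sequencing clusters, and apparent KD is the per-design median of normalised cluster binding-curve fits.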

For data set [2], the system named is MS2 coat protein. Nature of the data set: apparent KD of MS2 coat protein, switch OFF state (with FMN for OFF switches, without FMN for ON switches); designed switch direction (-1 OFF switch, 1 ON switch): -1; higher = weaker reporter binding. To be noted: FMN input: 0 or 200 uM; Eterna round: R93 (includes R88 designs). The method in brief: as §1

Consider “AAAAAGUCAGGAUAUACAUGAGGAUCACCCAUGUAGCAUACGAAAAAGAGUGUGCAGUGUAGAAGGGACAAAAA [Exclusion3-cac3]”, for which the “apparent KD of MS2 coat protein” value in data set [1] amounted to 19.5 nM; in data set [2], 21.2 nM.

“AAAAAGUCAGGAUAUGCGAAGGCGUCUGAUAGACGAGGCUAGCAGAAGGGACAUGAGGAUCACCCAUGUAAAGA [Mat - Exclusion 4 - D82]”: the “apparent KD of MS2 coat protein” value came out at 50 nM in data set [1] and 51.3 nM in data set [2].

For “AAAAAGUCAGGAUAUGUAGCAAAAGGUGAUCAAAAAAAGCUACAGAAGGGACAUGAGGAUCACCCAUGUAAAAA [Ex4: 937]”, the “apparent KD of MS2 coat protein” value in data set [1] stood at 139 nM; in data set [2], 156 nM.

Take “AAAAAGUGAGGAUAUACAUGAGGAUCACCCAUGUGAAAUCGGAAAAAAAACGAAAAAAGUAGAAGGCACAAAAA [Fiskers Exclusion 3 D3]”: the “apparent KD of MS2 coat protein” value in data set [1] came to 19.1 nM; in data set [2], 22.1 nM.

As to “AAAAAGUGAGGAUAUACAUGAGGAUCACCCAUGUGUUAAAAAAAAAGGGUGGAAGAAAGUAGAAGGCACCAAAA [Ex 3 May 50]”, the entries for the “apparent KD of MS2 coat protein” value in data set [1] and in data set [2] were 33.7 nM and 22.9 nM, respectively.

“AAAAAGUGAGGAUAUACGUUGAAAAAAAAAAAAAAAAAGGCGUAGAAGGCACAUGAGGAUCACCCAUGUAAAAA [Ex4 Malc#5]”: the “apparent KD of MS2 coat protein” value in data set [1] is 56 nM; in data set [2], 77.4 nM.

“AAAAAGUGAGGAUAUCCAGAUAAAAAAACGAAAAAAAAUCUGGAGAAGGCACAUGAGGAUCACCCAUGUAUGAC [Ex 4 May 6]”: the “apparent KD of MS2 coat protein” value in data set [1] stood at 32.7 nM; in data set [2] it was 38.2 nM.

Consider “AAAAAGUGAGGAUAUGGUAAAAAAAAAAAAAAAAAAAACCUCCAGAAGGCACAUGAGGAUCACCCAUGUAAAAA [Jolly's Folly 2 - Jieux - Exclusion 4]”, for which the “apparent KD of MS2 coat protein” value amounted to 75.8 nM in data set [1] and 34.6 nM in data set [2].

As for “AAAAAGUGAGGAUAUGUCAAAGGUCACGAAAGUGACAAAGGACAGAAGGCACAUGAGGAUCACCCAUGUAAAAA [Fiskers Exclusion 4D1 65% - Early G segment 1]”, the “apparent KD of MS2 coat protein” value in data set [1] turned out to be 37.4 nM; in data set [2], 43.6 nM.

For the sequence “AAAAAGUGAGGAUAUGUCAAAGGUCACGAAAGUGACAAAGGACAGAAGGCACAUGAGGAUCACCCAUGUGGAAA [Fiskers Exclusion 4D1 65% - Early + late G segment 3]”, the “apparent KD of MS2 coat protein” value came to 27.3 nM in data set [1] and 27.6 nM in data set [2].

Turning to “AAAAAUAGAGGAUAUACAUGAAAAAAAAAAAAAAAAAAAAAACAUGAGGAUCACCCAUGUAGAAGGCUAAAAAA [double AU!]”, the figures for the “apparent KD of MS2 coat protein” value in data set [1] and in data set [2] were 30.8 nM and 29.2 nM, respectively.

As to “AAAAAUCGAGGAUAUACAUGAGGAUCACCCAUGUCAAAAAAUGACUACACAAAAGAAAGUAGAAGGCGAUAAAA [Ex 3 May 17]”, the “apparent KD of MS2 coat protein” value in data set [1] worked out at 28.5 nM; in data set [2] it was 31 nM.

Regarding “AAAAAUCGAGGAUAUACAUGAGGAUCACCCAUGUUAGAAAAUGAUUACACAAAAGAAAGUAGAAGGCGAUAAAA [Ex 3 May 20]”, the results for the “apparent KD of MS2 coat protein” value in data set [1] and in data set [2] were 27.9 nM and 23.4 nM, respectively.

As for “AAAAAUGGAGGAUAUACAUGAGGAUCACCCAUGUGUAAAAAAAAUUACACAAAAGAAAGUAGAAGGCCAUAAAG [Mat - Exclusion 3 - Mayanna mod - D108]”, the “apparent KD of MS2 coat protein” value in data set [1] was 59.3 nM; in data set [2], 139 nM.

For the sequence “AAAAAUGGAGGAUAUACAUGAGGAUCACCCAUGUGUAACUAUACAAAACACAAAAAAAGUAGAAGGCCAAAAAA [Gilly Gone Silly 7 - Jieux - Exclusion 3]”, the “apparent KD of MS2 coat protein” value in data set [1] worked out at 20.1 nM; in data set [2] it was 19.3 nM.

As to “AAAAAUGGAGGAUAUACAUGAGGAUCACCCAUGUGUAACUAUACUAAGCGCUCCUCACGUAGAAGGCCAAAAAA [Gilly Gone Silly 14 - Jieux - Exclusion 3]”, the “apparent KD of MS2 coat protein” value was found to be 74.1 nM in data set [1] and 31.4 nM in data set [2].

For the origin of these results see the supplement of paper PMC9170038.
